Laboratory results from US20160143256A1.
Blank lines part the entries; values can stand above or below the substance they belong to.

Molecular target: mouse Mc4r (melanocortin 4 receptor), untagged expression construct (mouse) (UniProt P56450)
Test: cell-based or functional assay

UniProt P56450, sequence (P56450 whole entry): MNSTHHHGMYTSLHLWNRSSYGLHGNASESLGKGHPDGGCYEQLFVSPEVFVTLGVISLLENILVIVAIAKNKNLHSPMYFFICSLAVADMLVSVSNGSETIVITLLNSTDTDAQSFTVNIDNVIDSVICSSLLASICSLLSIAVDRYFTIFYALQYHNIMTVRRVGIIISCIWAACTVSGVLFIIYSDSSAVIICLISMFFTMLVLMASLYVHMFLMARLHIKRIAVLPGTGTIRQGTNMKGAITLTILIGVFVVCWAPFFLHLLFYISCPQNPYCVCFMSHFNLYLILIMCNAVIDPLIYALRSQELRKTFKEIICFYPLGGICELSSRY

αMSH-induced increase above basal PKA activity (CRELuc, CHO cells transfected with Mc4r alone): < 2 fold
Substance: α-melanocyte stimulating hormone (from UniProt P01189 138-150) (peptide)

αMSH-induced increase above basal PKA activity (CRELuc, CHO cells co-transfected with Mc4r and Mrap2, 0-10 nM αMSH): 5 fold
Substance: mouse Mrap2 (melanocortin 2 receptor accessory protein 2), untagged expression construct (from UniProt D3Z1Q2 1-207)

αMSH-induced increase above basal PKA activity (CRELuc, CHO cells co-transfected with Mc4r and Mrap2delE3): < 2 fold
Substance: Mrap2delE3 (mouse Mrap2 with exon 3 deleted) (from UniProt D3Z1Q2 1-55)
